Assay results published in the DeepSol protein solubility set.

Assay: soluble on expression in E. coli; label from the status in PepcDB or PDB records

Sequence	soluble on expression in E. coli
MTNLVDKAAHSFATQNVVFQTLATASGKLVGVVTLNVEKALNALDLDMVRAMTVQLNLWKKDPLIACVVLDGSGEKAFCAGGDVRALYHASVAAKGQVTEVAKVFFEEEYRLDYLLHTYGKPVLVWGDGIVMGGGLGLMAGASHKVVTETSRIAMPEVTIGLYPDVGGSYFLNRMPGKMGLFLGLTAYHMNAADACYVGLADHYLNRDDKELMFDAMATLDWSDSPALNHQRLDTMINELSNQVDIPKGDSVLAESQEMIDRLMAGSLTDIVTRMSTLSTDEAWLSKACATMLAGSPISWHLAYIQTQLGTKLSLAQCFKWELTVSVNVCAKGDFCEGVRALLIDKDKQPKWQFADVQSVPNSVIEDILTSPWGEEHPLSQLS	soluble
MTNNPLIPQSKLPQLGTTIFTQMSALAQQHQAINLSQGFPDFDGPRYLQERLAHHVAQGANQYAPMTGVQALREAIAQKTERLYGYQPDADSDITVTAGATEALYAAITALVRNGDEVICFDPSYDSYAPAIALSGGIVKRMALQPPHFRVDWQEFAALLSERTRLVILNTPHNPSATVWQQADFAALWQAIAGHEIFVISDEVYEHINFSQQGHASVLAHPQLRERAVAVSSFGKTYHMTGWKVGYCVAPAPISAEIRKVHQYLTFSVNTPAQLALADMLRAEPEHYLALPDFYRQKRDILVNALNESRLEILPCEGTYFLLVDYSAVSTLDDVEFCQWLTQEHGVAAIPLSVFCADPFPHKLIRLCFAKKESTLLAAAERLRQL	soluble
MTNNQKLVGRHKRLAFMKVGTEGTYDRITGFTSLIEGKEAKEYARQYIDEATERTDVVGYATGIEYAFDRYTNNAVHEKIANITDDELLGVDAQVEIVSVDVFEEKAGGKYPARKRTYSVVPDTTGDGTDALIYSGNFKAVSEIVKGYCTTTDKWQTCTFVEGEIPAEALEHHHHHH	soluble
MTNPLYTGHPFGTTVTEETLRAIFLPLTQWEDKYRQLILLGKQLPALPDECKAQAKEIAGCENRVWLGFTRSDNGTMHFFGDSEGRIVRGLLAVLLTAVEGKNAAELQARSPLALFDELGLRAQLSASRSQGLNALSEAIVAATHKG	not soluble
MTNQLPKISEAELEIMKVLWLKSPQTANEIIEELEDPMDWKPKTIRTLINRLVQKEAVSYHQDKGRMYAYYPLVSQDNYLQVETKSLLKRFCGAAFKPLLVNFLKEEKLSSEDINELKRLLDEKTEENKRKD	not soluble
MTNVFHHVRNFIEQQPAPAKTLEKSSSPNILYTALPKHWRSNKSFQEPFYVVLLTPVPDNTEVSIWAGNDEKPCEEVRNEKAKVHRQVAKFNDLRFVGRSGRGRKFHLTIVIHSAPMMVATVKNVIKVTVDGPRDARIPKPQGSLKRQAEQQTIFPNDIIRTPGPPMPMTMIPPPWFPLPMTQTFPPSFFPLISPGPHPSISAALWKIHSESMKTPIKQKVEQENVSLNTSTCLSSPSIFITPTSDDRKLKRPSSPRSITKSSETSINLIQETPESVESKRRRNVSITSSNSSSPTIWRPF	not soluble
MTPQELNAECHACDKTPPAANTYKGWSGFVGLAAQLNQAWRVGYDITSGYRVPNASEVYFTYNHGSGNWLPNPNLKAERSTTHTLSLQGRSEKGMLDANLYQSNYRNFLSEEQKLTTSGTPGCTEENAYYGICSDPYKEKLDWQMKNIDKARIRGIELTGRLNVDKVASFVPEGWKLFGSLGYAKSKLSGDNSLLSTQPLKVIAGIDYESPSEKWGVFSRLTYLGAKKVKDAQYTVYENKGWGTPLQKKVKDYPWLNKSAYVFDMYGFYKPAKNLTLRAGVYNLFNRKYTTWDSLRGLYSYSTTNAVDRDGKGLDRYRAPGRNYAVSLEWKF	not soluble
MTQANLSETLFKPRFKHTETSTLVRRFNRGSQPPMQSALDGKNVPHWYRMINRLMWIWRGVDPREILDVQARIVMSDAERTDDDLYDTVIGYRGGNWIYEWAKQAMDWQQKACQEQDAMRSGRYWLHASTLYNIAAYPHLKGDELAEQAQALANRAYEEAAQRLPGSLREMEFAVPGGSPVTAFLHMPKGDGPFPTVLMCGGLDAMQTDYYTLYERYFAPRGIAMLTLDMPSVGFSSKWKLTQDSSLLHQHVLKALPNVPWVDHTRVAAFGFRFGANVAVRLAYLEAPRLKAVACLGPVVHALLSDPQRQSTVPEMYLDVLASRLGMHDASDEALRVELNRYSLKVQGLLGRRCPTPMLSGFWKNDPFSPEEESRLITTSSSDGKLIEIPFNPVYRNFDRALQEITDWINHRLC	not soluble
MTQNHSASLLVELLTEELPPKALARLSDAFAEGIAQRLAARDLIEGELAFERYATPRRLAVVVQNVRAVAPERQVREKVLPVSVALDAQGKPTAPLAKKLAALGHPNLSIADLERAHDGKAEAFFVNYASPGATLAEGLQAALDETLAKLPIPKVMTYQRPDGTDVQFVRPVHRLSALHDDRIVPVCAFGIDAGDTTLGHRFLSDGLVAIQHANAYADTLRDKGRVLAHFAGRKEAIRAQLEANAGGDQVVMPEALLDEVTSLVEWPVVYPCRFEDEFLQVPQECLILTMQTNQKYFALTDAAGKLRSRFLIVSNIETKTPDEIVEGNERVVRPRLADAKFFFEQDKKKPLADRVPLLANVVYHNKLGSQLARIERLETLAGEIAPAIGADATVAIRAARLAKADLLTDMVGEFPELQGTMGTYYARHDGEAEDVAIACSEHYQPRFSGDALPTTPVSTAVALADKLETIVGIWGIGLAPTGEKDPFALRRHALGVLRLLLEKQLPLDLVWLLRTTYERFAAVPDVAESTDAIHAFFVERLRGLLRERGYTAGEVDAVLSLNPTR	not soluble
MTQTAAPARYSPAELACALGLFPPTAEQAAVIAAPPGPLVVIAGAGAGKTETMAARVVWLVANGYAEPGQVLGLTFTRKAAGQLLRRVRSRLARLAGIGLGCGDPAACAPVVSTYHAFAGSLLRDYGLLLPLEPDTRLLSETELWQLAFDVVSGYDGVLCTDKSPAAVTSIVVRLWGQLGEHLVDTRALRDTHVELERLVHALPAGRYQRDRGPSQWLLRMLATQTQRAELVPLLDALGERMHAGKVMDFAMQMASAARLAATSPQVGQDLRRRYRVVLLDEYQDTGHAQRVVLSSLFGGGVDDGLALTAVGDPIQSIYGWRGASATNLPRFTTDFPLSDGTPAPVLELLTSWRNPPQALRVANGISAEARRRSVAVRALRPRPDAPPGAVRCALLPDVQAEREWIADHLRMRYQRAEADGVKPPTAAVLVRRNADAAAIADTLRARGIPAEVVGLAGLLSIPEVAEVVAMLRLVADPTAGAAAMRVLTGPRWRLGARDLAALWRRALTLSGESPSTASPESIAMAASADADNPCLADAISDPGSAEGYSVAGYGRIGALAGELSALRGRLGHSLPDLVAEVRRVLGVDCEVRASAPVSGGWAGPEHLDAFADVVAGYAERASARSSEASVAGLLAYLDVAEVVENGLPPAELTVACDRVQVLTVHAAKGLEWQVVAVAHLSRGVFPSTVSRSSWLTDPAELPPLLRGDRASAGAHGIPVLDTSAVADRKQLSDKISEHRRLLDRRRVDEERRLLYVAVTRAEDTLLVSGHHWGPTGTKPRGPSEFLCELKDIIDRSAAAGDPCGVVEQWASAPAGDERNPLCDNAIEAVWPADPLAARRGDVERGAALVAAAMSADLPGSTTDIDHPPRPGDAPWSTDVDALLAERAHAARGAPARGLPNHLSVSSLVELVGDPVGARQRLMCRLPKRPDPHAWLGDAFHAWVQQFYGAELLFDLGDLPGAADREVGDPEELAALQRAFTASSWAARTPAAVEVPFEMPIGDTVVRGRIDAVFVDPDGGATVVDWKTGKPPHGPAAMRQAAVQLAVYRLAWAALRGCPTSSVRTAFYYVRSGITVVPDELPAPGELAMLLTDCAGRRSDT	not soluble
MTRDDDDDEDDEEEEDSGAWGRESYAFDGFHPTEEFGFSFSPRGGMRFHGNFGFDDLVRDFNSIFSEMGAWTLPSHSPELPGPESETPGVRLREGQTLRDSMLKYPDSHQPRIFEGVLESHAKPESSKPAPDWGSQGPFHRLDDTWPVSPHSRAREDKDLDSQVSQEGLGPLLQPQPKSYFKSISVTKITKPDGTVEEHRTVVDGEGRRETTVTHQEAHDSSRSDPDPPRSSALDDPFSILDLLLGRWFRSR	not soluble
MTRMLPEPAYRHGSVGKIGVLMINLGTPDAPTAKALRAYLKQFLSEPRIVEFPRWLWWFILNGIILNVRPAKSAKKYEQIWTSEGSPLRVHTARQTALVAALLEQQADSSLVVEYAMIIGNPSIAEKLQQMKVQGCDRILVLPLFPQYAASSTGCVLDGVFSELRKMRNIPDIRTVRHYHDDPGYIAALAQNVRDYWEKHGQPDKLIISFHGVPRKTLEMGDPYHCECQKTGRLLAEALELADDRYQICFQSRFGFAQWLGPYTAEILAELGKQKTGRVDVVCPGFVSDCLETLEEIALEGKAIFTEAGGGEFHYIPSLNEHPLWIEAIGNIIQTHLTGWADRRLSEEAAERSRKRALALGARE	not soluble
MTRQGWLVPCLSHGKDDQLQDELSELSKAYRKKFQTDLHTKSGDIIDPSGEFLYVYLDEENYRICRQSMVLVSNAPDGLIATTLEPYSDSYTFRQVREQLQAFSGDGGRINYSRNEHSSSYFLTIQASNEFKHVGAVRNTFGQSKDIWKRRMPDASQPLDYHLIAVGCSAFLPEAALDDVESDGAVLEHHHHHH	not soluble
MTRTSKWTVHEAKSNPKYFTHNGNFGESPNHVKRGGYGKGNWGKPGDEINDLIDSGEIKTVFNKTRRGSNSQNNERRLSDLQQYHI	soluble
MTSAAEITAAVRQLYNTYPFPPEPLLDEPPPGYNWRWSWPAAYSFCTGRYPSQLDVAILDAGCGTGVGTEYLAHLNPQAKITALDLSEAALAIACERCRRSGATNVQFHHLSLEEVAQLGQTFQMINCVGVLHHLPEPQRGIQALADVLAPGGIVHIFVYGEYGRWEIKLMQQAIALLQGSDRHNYREGVAIGRQLFAALPENNRLKKREQERWSLENQRDECFADMYVHPQEIDYTIASLFELIRASGLEFIGFSNPQVWQLERLLGSQPELLQRAQQLDPIQQYQLIECLDPEAMTHFEFFLAKPPLPRHDWAADRELLAAIPWRHPCIDGWPGACVFNCHYEVIHLNQAEQEFLNAASGKATVAELLAQQPDFNLAEVRSLLARHLLLLGVKE	not soluble
MTSHKRFCLSSRSPSYHTTELSLPLYIKFISWDFDCFQVDDVGFRPIFSAKTPNSPFTVEILRSGISGIVFDERETNTTANDGRMNFAMEYIIDKLLGDRCVPITVETLQISVDRVHYIFSKNLNMICKNLDVSIIETGVTLDTILHTSSYPLKSLSLSNTWAFAHPIILTAELLIVPTSDHFHRITNARVHAISLSGDFKLFIYEWLENGREIGTEFTIGGFRGRDYAKKMVCDIKEEFDERFQVVRRSHFPLSIAIKMNDFSEIYVFYDDIMERSKVYFKVQPTQF	not soluble
MTSKTNMTSNKFAYDFFPWSNDTNSSQQIKNIKPPPKRSNRPTKRTTFTSEQVTLLELEFAKNEYICKDRRGELAQTIELTECQVKTWFQNRRTKKRSSELKFGTACSENKTSTKWYYDSKLLFCYPYKYLGCGEGSNSFESNENCLESCKPADQFSCGGNTGPDGVCFAHGDQGCKKGTVCVMGGMVGFCCDKKIQDEWNKENSPKCLKGQVVQFKQWFGMTPLIGRSCSHNFCPEKSTCVQGKWTAYCCQ	soluble
MTSQRCRRRYFMMIRERIEEKLRAAFQPVFLEVVDESYRHNVPAGSESHFKVVLVSDRFTGERFLNRHRMIYSTLAEELSTTVHALALHTYTIKEWEGLQDTVFASPPCRGAGSIA	soluble
MTTAAKTETEDPTARRILDAALEQFTVFGLRRSSMDDVAKRAGVSRVTVYRRFGTKDALVEQTLLRENSRFFQRLDQAVAALPTMEERVVEGFVVALRHTRAHPLFGGLLRLEPEVVLPYLTVHGGSSLAATVDYLTGHLRRAQQAEGRPGDDPRPVAELMVRVAVSFLLNPASCIEMDDEDQARAFARRYLAPLLNA	not soluble
